Measurements published in PMC7666153, “The phosphorylated regulator of chemotaxis is crucial throughout biofilm biogenesis in Shewanella oneidensis” (NPJ Biofilms and Microbiomes, 2020).

Molecular target: the molecule itself
Assay: cross-linking; Strep-tagged CheY3 (11.8 µM) and His-tagged SO4207S (3.1 µM), together or separately, 5 mM EDC, 1 h at room temperature, 10 mM cacodylate buffer; SDS-PAGE and blot with HisProbe-HRP

B1: His-tagged SO4207S (soluble cytoplasmic domain of SO4207, D388 to N625) (domain or fragment, S. oneidensis, UniProt Q8E9Q9 388-625, looked up)
chain: DERKAKQRIQQEALKQAQKIRSAREEALKVEAETNERLEQKVQERTLELEITLRELHEVNQKLTEQSTIDSLTGVKNRSAFDKRLLAESRISRRQETPIALLMLDIDRFKSINDQFGHLAGDQALKLIAQTLQQHLKRPTDLVSRFGGEEFAIILPNTTADGALQVAESIRDTVSCIGLTWEGKPIPLTVSIGVSADVIMNEQHSTELLEQADKALYQAKNSGRNQVKLYAPAQTEPN
notes: diguanylate cyclase SO4207 of Shewanella oneidensis, cytoplasmic domain D388 to N625, devoid of the transmembrane segments; Cloned into pET21b; printed mass 30 kDa; also called pET-SO4207S; source: E. coli BL21 (DE3), purified (HisTrapFF); not shown: 6xHis-tag, C-terminal, kept
  stoichiometry N: 2
